This is an account of results in PMC10375748.

Assay [1] has as its target ZZ peptide displayed on the CHO cell surface with the murine B7-1 transmembrane domain (from pEF1α-ZZ-B7). In words: flow cytometry on cells; stable CHO-ZZ cells (2 x 10^5 cells/sample) incubated with an excess of fluorescein-conjugated IgG of Table 2 for 40 min at 4 °C, washed with PBS; percentage of positive cells. (In flow cytometry, cells or beads pass a laser one at a time.)

Assay [2] has the same target. The assay is described as follows: flow cytometry on cells; CHO cells transiently transfected with the ZZ display plasmid, labelled with hIgG-FITC; percentage of ZZ-positive cells.
The target in assay [3] is ZZ peptide displayed on the CHO cell surface with the human PDGFR transmembrane domain (from pEF1α-ZZ-PDGFR). The assay is described as above.

With “Rb pAb to 6× His tag (FITC) (Abcam Ab1206-250) (antibody)”, in assay [1], the percentage of positive cells was 100%.

In assay [1], “Human IgG-FITC (Bersee BFR550) (antibody)” yielded a percentage of positive cells of 100%. In addition, the results for the percentage of ZZ-positive cells in assay [2] and in assay [3] were 43.6% and 6.9%, respectively. “Donkey Anti-Rabbit IgG (H + L)-Cy3 (Jackson ImmunoResearch Laboratories 711-165-152) (antibody)” displayed a percentage of positive cells in assay [1] of 100%. On the same count and under the same terms, then “Rb pAb to HA tag (PE) (Abcam Ab72564) (antibody)”, with 100%.
